From paper doi:10.1101/2022.04.10.487811

Target: HA H7 HK17 (A/Hong Kong/125/2017(H7N9)) hemagglutinin (influenza A virus A/Hong Kong/125/2017(H7N9))
Assay: BLI

Substance: MEDI8852 Fab (wildtype)
- Kd: 0.21 nM
